The values below come from patent US20120308570A1, “METHODS FOR TREATING DISEASES” (priority 2009, published 2012).

T1: SSB-2ΔSB (recombinant murine SSB-2 SPRY domain, residues 12-224) (mouse, UniProt O88838 12-224)
T1 construct: 226 residues in total; expressed as GST fusion in E. coli, GST cleaved off with thrombin; 15N-labelled for NMR; coupled to NHS-Sepharose for pull-downs; also called SPSB2
T1 sequence: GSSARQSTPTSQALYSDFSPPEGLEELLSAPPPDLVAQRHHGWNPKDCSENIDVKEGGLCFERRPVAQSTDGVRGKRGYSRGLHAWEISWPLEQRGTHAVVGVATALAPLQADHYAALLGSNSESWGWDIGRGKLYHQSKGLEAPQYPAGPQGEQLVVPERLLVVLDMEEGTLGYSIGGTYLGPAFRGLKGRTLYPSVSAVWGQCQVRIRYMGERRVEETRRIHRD

T2: full-length iNOS protein (endogenous, from LPS/IFNγ-treated mouse bone marrow-derived macrophages) (mouse, UniProt P29477 1-1144)
T2 construct: Not purified: present in macrophage lysates; Detected by Western blot with anti-iNOS antibody; also called NOS2; inducible nitric oxide synthase
T2 sequence: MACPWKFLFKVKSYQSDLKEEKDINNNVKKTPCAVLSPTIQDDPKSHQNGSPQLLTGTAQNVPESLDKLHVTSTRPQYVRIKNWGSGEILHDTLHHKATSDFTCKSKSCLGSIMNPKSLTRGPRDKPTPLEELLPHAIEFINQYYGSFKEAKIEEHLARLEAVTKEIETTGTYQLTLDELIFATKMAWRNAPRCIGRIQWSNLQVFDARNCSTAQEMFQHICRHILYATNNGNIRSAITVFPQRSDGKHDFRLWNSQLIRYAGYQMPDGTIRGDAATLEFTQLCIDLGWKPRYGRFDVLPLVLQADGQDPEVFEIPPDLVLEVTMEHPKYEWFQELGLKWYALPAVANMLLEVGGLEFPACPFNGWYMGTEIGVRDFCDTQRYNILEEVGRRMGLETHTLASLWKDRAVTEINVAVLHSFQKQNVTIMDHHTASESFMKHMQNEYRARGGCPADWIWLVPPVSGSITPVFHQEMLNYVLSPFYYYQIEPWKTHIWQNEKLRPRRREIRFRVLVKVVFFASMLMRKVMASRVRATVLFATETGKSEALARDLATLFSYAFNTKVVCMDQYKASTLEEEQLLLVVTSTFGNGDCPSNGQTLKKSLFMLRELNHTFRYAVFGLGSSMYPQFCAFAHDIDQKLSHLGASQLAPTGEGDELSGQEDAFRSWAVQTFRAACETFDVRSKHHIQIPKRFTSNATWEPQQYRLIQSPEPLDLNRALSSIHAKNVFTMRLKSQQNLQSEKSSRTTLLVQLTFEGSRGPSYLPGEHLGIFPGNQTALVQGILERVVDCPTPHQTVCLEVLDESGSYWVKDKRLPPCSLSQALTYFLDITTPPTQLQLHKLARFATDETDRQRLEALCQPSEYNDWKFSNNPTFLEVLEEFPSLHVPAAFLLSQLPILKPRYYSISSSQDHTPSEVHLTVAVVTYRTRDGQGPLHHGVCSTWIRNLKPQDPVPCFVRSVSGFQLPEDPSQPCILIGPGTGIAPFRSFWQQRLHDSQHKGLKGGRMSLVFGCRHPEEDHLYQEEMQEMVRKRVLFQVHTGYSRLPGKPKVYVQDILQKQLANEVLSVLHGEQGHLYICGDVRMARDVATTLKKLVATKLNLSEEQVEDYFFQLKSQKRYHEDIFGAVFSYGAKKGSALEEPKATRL

B1: Flag-tagged SSB-2 mutant R100/G101 to alanine (other)
chain: DYKDDDDKMGQTALARGSSSTPTSQALYSDFSPPEGLEELLSAPPPDLVAQRHHGWNPKDCSENIDVKEGGLCFERRPVAQSTDGVRGKRGYSRGLHAWEISWPLEQAATHAVVGVATALAPLQADHYAALLGSNSESWGWDIGRGKLYHQSKGLEAPQYPAGPQGEQLVVPERLLVVLDMEEGTLGYSIGGTYLGPAFRGLKGRTLYPSVSAVWGQCQVRIRYMGERRVEEPQSLLHLSRLCVRHALGDTRLGQISTLPLPPAMKRYLLYK
B2: Flag-tagged SSB-2 mutant V206 to alanine (other)
chain: DYKDDDDKMGQTALARGSSSTPTSQALYSDFSPPEGLEELLSAPPPDLVAQRHHGWNPKDCSENIDVKEGGLCFERRPVAQSTDGVRGKRGYSRGLHAWEISWPLEQRGTHAVVGVATALAPLQADHYAALLGSNSESWGWDIGRGKLYHQSKGLEAPQYPAGPQGEQLVVPERLLVVLDMEEGTLGYSIGGTYLGPAFRGLKGRTLYPSVSAAWGQCQVRIRYMGERRVEEPQSLLHLSRLCVRHALGDTRLGQISTLPLPPAMKRYLLYK
B3: Flag-tagged SSB-2 mutant Y120 to phenylalanine (other)
chain: DYKDDDDKMGQTALARGSSSTPTSQALYSDFSPPEGLEELLSAPPPDLVAQRHHGWNPKDCSENIDVKEGGLCFERRPVAQSTDGVRGKRGYSRGLHAWEISWPLEQRGTHAVVGVATALAPLQADHFAALLGSNSESWGWDIGRGKLYHQSKGLEAPQYPAGPQGEQLVVPERLLVVLDMEEGTLGYSIGGTYLGPAFRGLKGRTLYPSVSAVWGQCQVRIRYMGERRVEEPQSLLHLSRLCVRHALGDTRLGQISTLPLPPAMKRYLLYK
B4: Flag-tagged SSB-2 mutant Y120 to alanine (other)
chain: DYKDDDDKMGQTALARGSSSTPTSQALYSDFSPPEGLEELLSAPPPDLVAQRHHGWNPKDCSENIDVKEGGLCFERRPVAQSTDGVRGKRGYSRGLHAWEISWPLEQRGTHAVVGVATALAPLQADHAAALLGSNSESWGWDIGRGKLYHQSKGLEAPQYPAGPQGEQLVVPERLLVVLDMEEGTLGYSIGGTYLGPAFRGLKGRTLYPSVSAVWGQCQVRIRYMGERRVEEPQSLLHLSRLCVRHALGDTRLGQISTLPLPPAMKRYLLYK
B5: Flag-tagged SSB-2 transgene product (a.a. 3-265), in BMDM of Ssb-2 T/+ mice (other)
chain: DYKDDDDKQTALARGSSSTPTSQALYSDFSPPEGLEELLSAPPPDLVAQRHHGWNPKDCSENIDVKEGGLCFERRPVAQSTDGVRGKRGYSRGLHAWEISWPLEQRGTHAVVGVATALAPLQADHYAALLGSNSESWGWDIGRGKLYHQSKGLEAPQYPAGPQGEQLVVPERLLVVLDMEEGTLGYSIGGTYLGPAFRGLKGRTLYPSVSAVWGQCQVRIRYMGERRVEEPQSLLHLSRLCVRHALGDTRLGQISTLPLPPAMKRYLLYK
notes: The printed end of the range may exceed the entry's length; also called full-length SSB-2
B6: Flag-tagged SSB-2ΔSB transgene product (a.a. 2-224, without the SOCS box), in BMDM of Ssb-2ΔSB T/+ mice (other)
chain: DYKDDDDKGQTALARGSSSTPTSQALYSDFSPPEGLEELLSAPPPDLVAQRHHGWNPKDCSENIDVKEGGLCFERRPVAQSTDGVRGKRGYSRGLHAWEISWPLEQRGTHAVVGVATALAPLQADHYAALLGSNSESWGWDIGRGKLYHQSKGLEAPQYPAGPQGEQLVVPERLLVVLDMEEGTLGYSIGGTYLGPAFRGLKGRTLYPSVSAVWGQCQVRIRYMGERRVEE
notes: also called SOCS box-deleted SSB-2
B7: Flag-tagged SSB-1ΔSB transgene product (a.a. 2-233, without the SOCS box), in BMDM of Ssb-1ΔSB T/+ mice (other)
chain: DYKDDDDKGQKVTGGIKTVDMRDPTYRPLKQELQGLDYCKPTRLDLLLDMPPVSYDVQLLHSWNNNDRSLNVFVKEDDKLIFHRHPVAQSTDAIRGKVGYTRGLHVWQITWAMRQRGTHAVVGVATADAPLHSVGYTTLVGNNHESWGWDLGRNRLYHDGKNQPSKTYPAFLEPDETFIVPDSFLVALDMDDGTLSFIVDGQYMGVAFRGLKGKKLYPVVSAVWGHCEIRMRYLNGLDPE
notes: also called SOCS box-deleted SSB-1
B8: Flag-tagged SSB-1 transgene product (a.a. 2-274), in BMDM of Ssb-1 T/+ mice (other)
chain: DYKDDDDKGQKVTGGIKTVDMRDPTYRPLKQELQGLDYCKPTRLDLLLDMPPVSYDVQLLHSWNNNDRSLNVFVKEDDKLIFHRHPVAQSTDAIRGKVGYTRGLHVWQITWAMRQRGTHAVVGVATADAPLHSVGYTTLVGNNHESWGWDLGRNRLYHDGKNQPSKTYPAFLEPDETFIVPDSFLVALDMDDGTLSFIVDGQYMGVAFRGLKGKKLYPVVSAVWGHCEIRMRYLNGLDPEPLPLMDLCRRSVRLALGKERLGAIPALPLPASLKAYLLYQ
notes: The printed end of the range may exceed the entry's length; also called full-length SSB-1

The target of the first experiment is T1, SSB-2ΔSB (recombinant murine SSB-2 SPRY …). Description: ITC. On the procedure: (§1) Wild-type and mutant iNOS peptides (Table 2), corresponding to Lys19-Thr31 of mouse iNOS, were synthesized by GL Biochem (Shanghai) Ltd. These peptides were N-terminal acetylated and C-terminal amidated. All ITC measurements were carried out at 25° C. using a Microcal omega VP-ITC (Microcal Inc., Northampton, Mass.). SSB-2ΔSB was dialysed against buffer (100 mM TrisHCl, 150 mM NaCl, pH 8.0), and wild-type and mutant iNOS N-terminal peptides were prepared in the same buffer from 5 mM stocks. Solutions of 5 to 10 μM SSB-2ΔSB in the cell were titrated by injection of a total of 290 μL of 50-200 μM of iNOS peptides. Data analysis was performed using the evaluation software, MicroCal Origin version 5.0. All curves were fitted using the nonlinear least-squares fitter and the “One Set of Sites” model.
Mutation of Glu21 had no effect on SSB-2:iNOS peptide binding. […] Binding of an SSB-2-SPRY domain in which tyrosine 120 had. been mutated to alanine (Y120A-SSB-2ΔSB) was assessed by ITC.
Turning to Ac-KEEKDINNNAKKT-NH2 [iNOS N-terminal peptide XII, Ac-KEEKDINNNAKKT-NH2], the “fold lower binding affinity than the wild-type peptide” value is 2 to 4 fold. Same read-out and setting: the value for Ac-KEEKDINNNVKAT-NH2 [iNOS N-terminal peptide XIII, Ac-KEEKDINNNVKAT-NH2] was 2 fold.

For the next experiment the target is unchanged. Description: ITC, 25 C, peptide injected into SSB-2ΔSB. On the procedure: FIG. 3. Typical ITC raw data and titration curves for SSB-2 and iNOS peptide interactions. Titration curves were fitted using the “One Set of Sites” model in MicroCal Origin.
as §1
A general note: In ITC the heat of successive injections is recorded.
For orientation: Kd means the concentration at which binding is half-saturated. Take Ac-KEEKDINNNAKKT-NH2 [iNOS N-terminal peptide XII, Ac-KEEKDINNNAKKT-NH2]: the Kd was found to be 56.8 nM. The same measure, in the same setting: then Ac-KEEKDINNNVKAT-NH2 [iNOS N-terminal peptide XIII, Ac-KEEKDINNNVKAT-NH2], with 29.8 nM.

The target of a further experiment is T2, full-length iNOS protein (endogenous, …). Nature of the experiment: anti-Flag co-immunoprecipitation, anti-iNOS Western blot. The source says: FIG. 6. Interaction between iNOS and SSB-1, -2, and -4 and SSB-2 residues affecting 10 iNOS binding. (A) iNOS interacts preferentially with SSB-2 and SSB-4. 293T cells were transiently transfected with vector alone or cDNA encoding either Flag-tagged SSB-1, SSB-2, SSB-3 or SSB-4. Cells were lysed, and mixed with BMDM lysates from cells induced to express iNOS. Flag-tagged proteins were immunoprecipitated using anti-Flag antibodies (M2-beads) and separated by SDSPAGE. Co-immunoprecipitation of iNOS was detected by Western blot with anti-iNOS antibodies (upper panel). Membranes were stripped and reprobed with rat anti-Flag antibodies (middle panel). Comparative expression of Flag-tagged proteins in 293T lysates is shown by Western blot (lower panel). (B) SSB-2 residues affecting iNOS binding. Residues in the SSB-2 SPRY domain were mutated to Ala or Phe (for Y120) based on SSB-2 structure and sequence conservation. 293T cells 20 were transiently transfected with cDNA encoding Flag-tagged wild-type or mutant SSB-2. Cells were lysed, and mixed with BMDM lysates from cells induced to express iNOS. Flag-tagged proteins were immunoprecipitated using anti-Flag antibodies and separated by SDS-PAGE. Coimmunoprecipitation of iNOS was detected by Western blot with anti-iNOS antibodies.
Background: In western blotting, separated proteins are transferred to a membrane and probed.
With B1, the binding result is “no binding”.

Take B2: the binding result was “no binding”. Consider B3, for which the binding result is recorded as “no binding”. Take B4: the binding result is on record as “no binding”.

The next experiment shares this target. Nature of the experiment: anti-Flag immunoprecipitation from transgenic BMDM, anti-iNOS re-blot. On the procedure:
Cells were incubated with IFNγ and LPS as described, and lysed in KALB lysis buffer (Nicholson et al., 1995) containing protease inhibitors (Complete Cocktail tablets, Roche), 1 mM phenylmethylsulphonyl fluoride, 1 mM Na₃VO₄ and 1 mM NaF. Proteins were immunoprecipitated using anti-Flag antibody conjugated to Sepharose (M2; EASTMAN KODAK). Proteins were separated by sodium dodecyl sulphatepolyacrylamide gel electrophoresis (SDS-PAGE) under reducing conditions and electrophoretically transferred to Biotrace PVDF membranes (Pall Corp. Ann Arbor, Mich.). Membranes were blocked overnight in 10% w/v skim milk and incubated with primary antibody for 2 h. Antibody binding was visualized with either peroxidase-conjugated goat anti-rat immunoglobulin (Southern Biotech) or peroxidase-conjugated sheep anti-rabbit immunoglobulin (Chemicon, Melbourne, Australia), and the enhanced chemiluminescence (ECL) system (Amersham, Little Chalfont, Buckinghamshire, UK). To re-blot, the membrane was first stripped of antibodies in 0.1 M glycine, pH 2.9.
As genetic deletion of SSB-2 appeared to result in elevation of iNOS levels, it was tested whether artificially increasing SSB levels could correspondingly down-regulate iNOS expression. BMDM were generated from mice expressing either a Flag-tagged Ssb-1 or Ssb-2 transgene under a constitutive promoter (Ssb-1^{T/+}, Ssb-2^{T/+}) and from wild-type littermate control mice. […] Macrophage expression of the SSB transgenes was confirmed by anti-FLAG immunoprecipitation and Western blot (FIGS. 9C and 10C, top panels).
In the case of B5, the binding result was “binds”. Same read-out and setting: then B6, with “binds”; and B7, with “binds”. On the same count and under the same terms, the value for B8 was “binds”.
